The source of these data is article PMC3861120, “A Domesticated PiggyBac Transposase Interacts with Heterochromatin and Catalyzes Reproducible DNA Elimination in Tetrahymena” (PLoS Genetics, 2013).

To fix the notation:
B1: Tetrahymena histone H3 peptide, amino acids 1-19, unmodified, C-terminally biotinylated (peptide, UniProt P69150 2-20, looked up)
peptide: ARTKQTARKSTGAKAPRKQ-{PEG-biotin}
modifications: reading uncertain
notes: histone H3, Tetrahymena, amino acids 1-19; also called unmodified peptide (1-19); source: synthetic peptide
B2: Tetrahymena histone H3 peptide, amino acids 1-19, tri-methylated at lysine 4, C-terminally biotinylated (peptide, UniProt P69150 2-20, looked up)
peptide: ART[Lys(Me3)]QTARKSTGAKAPRKQ-{PEG-biotin}
modifications: reading uncertain
notes: histone H3, Tetrahymena, amino acids 1-19; That the K4me3 peptide is the 1-19 peptide follows from the position of the residue; also called H3K4me3 peptide; source: synthetic peptide
B3: Tetrahymena histone H3 peptide, amino acids 16-35, unmodified, C-terminally biotinylated (peptide, UniProt P69150 17-36, looked up)
peptide: PRKQLASKAARKSAPATGGI-{PEG-biotin}
modifications: reading uncertain
notes: histone H3, Tetrahymena, amino acids 16-35; also called unmodified peptide (16-35); source: synthetic peptide
B4: Tetrahymena histone H3 peptide, amino acids 1-19, tri-methylated at lysine 9, C-terminally biotinylated (peptide, UniProt P69150 2-20, looked up)
peptide: ARTKQTARKSTGAKAPRKQ
modifications: tri-methylated lysine 9; biotin at the C-terminus with a PEG linker
notes: histone H3, Tetrahymena, amino acids 1-19; also called H3K9me3 peptide; source: synthetic peptide
B5: Tetrahymena histone H3 peptide, amino acids 16-35, tri-methylated at lysine 27, C-terminally biotinylated (peptide, UniProt P69150 17-36, looked up)
peptide: PRKQLASKAAR[Lys(Me3)]SAPATGGI-{PEG-biotin}
modifications: reading uncertain
notes: histone H3, Tetrahymena, amino acids 16-35; also called H3K27me3 peptide; source: synthetic peptide

Where no end group is shown, it is not given here. [ ]: non-standard residue; d: D form. Lys(Me3) = C[N+](C)(C)CCCC[C@H](N)C(=O)O; PEG = not defined here

For the assay, the target named is T1, MBP-tagged cysteine-rich domain (566 aa-657 aa) of Tpb2p, MBP-Tpb2p-CRD (WT) (Tetrahymena thermophila, UniProt D2Z1K6 566-657).
T1 construct: Tpb2p (Tetrahymena piggyBac-like transposase 2), cysteine-rich domain, aa 566-657; amplified from a codon-optimized TPB2 coding region in pMAL-TPB2; Cloned in pMalC2X, which is expected to put MBP at the N-terminus (surmise); also called cysteine-rich domain of Tpb2p; source: E. coli BL21(DE3), purified (Amylose resin, maltose elution, dialysis)
T1 sequence (looked up): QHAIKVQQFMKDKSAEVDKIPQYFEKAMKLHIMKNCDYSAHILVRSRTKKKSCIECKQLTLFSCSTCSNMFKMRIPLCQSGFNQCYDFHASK
Description: pull-down; biotin-tagged histone peptides (1 ug) immobilised on streptavidin Dynabeads, 1 ug MBP-Tpb2p-CRD added, overnight at 4°C; 10 mM Tris pH 7.5, 0.1 mM ZnSO4, 0.05% NP40, 250 mM NaCl; western blot with anti-MBP. The following applies: both partners purified. In general terms: Immunoblotting shows a protein as a band on a membrane.
For B1, the binding result is listed as “binds”.

As to B2, the binding result is “binds”.

For the molecule B3, the binding result was “binds”.

In the case of B4, the binding result is recorded as “binds”.

As for B5, the binding result was “binds”.
